Results published in patent US20140079753A1, “BMP BINDING PEPTIDES” (Affinergy, LLC, priority 2011, published 2014).

What was measured:
[1] = target: T1, BMP2 (Homo sapiens, UniProt P12643); test: BMP2 binding ELISA of synthetic truncation peptides; design: key: (−) no binding; (+) binding similar to that of full-length SEQ ID NO: 148 binding; (−/+) binding decreased relative to full-length SEQ ID NO: 148 binding; settings: relative to full-length SEQ ID NO: 148, ELISA
T1 construct: purchased MEDTRONIC, INC
T1 sequence (P12643 283-396): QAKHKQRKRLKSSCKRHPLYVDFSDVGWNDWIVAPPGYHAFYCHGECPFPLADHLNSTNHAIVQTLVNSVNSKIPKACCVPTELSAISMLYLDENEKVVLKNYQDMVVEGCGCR
Experimental: The relative binding affinity of synthetic BMP binding peptides SEQ ID NOs: 54-56 for BMP2 is shown in FIG. 17 (SEQ ID NO: 54 (Peptide 1); SEQ ID NO: 55 (Peptide 2); SEQ ID NO: 56 (Peptide 3)). Briefly, the results shown in FIG. 17 were generated by immobilizing biotinylated BMP binding peptides on streptavidin coated plates. Serial dilutions of 100 nM, 20 nM, 4 nM, 0.8 nM, 0.16 nM, 0.032 nM 0.006 nM, and 0.001 nM of BMP-2 were incubated with the immobilized BMP binding peptides for 60 minutes, washed 5 times, and bound BMP quantified using ELISA using mouse anti-BMP2 antibody and anti-mouse IgG-alkaline phosphatase conjugate. In addition, the specificity of BMP binding peptide binding SEQ ID NO: 54 to various members of the BMP family was performed in a similar manner by titrating BMP2, BMP3, BMP5, BMP6, GDF5, GDF7, TGFb1, TGFb3, and PDGF-BB (see FIG. 18).
(§1) For the truncation analysis, peptides with one or more N or C-terminal deletions of SEQ ID NO: 148 were synthesized and tested for BMP2 binding using an ELISA assay. The truncation peptides are shown in Table 5 below along with the relative BMP2 binding activity that was measured for each of the peptides according to the procedure described herein above. The relative BMP2 binding activity is depicted as follows: (−) no binding; (+) binding similar to that of full-length SEQ ID NO: 148 binding; (−/+) binding decreased relative to full-length SEQ ID NO: 148 binding.

[2] = system: adipose derived stem cells (ASCs); test: Phage whole cell ELISA for ASC binding; settings: ranking among SEQ ID NO: 1 mutagenesis variants of Table 2
Experimental: Peptides that bind adipose derived stem cells (ASCs) were identified by phage display biopanning. ASCs were culture amplified from processed liposuction aspirate (<3 passages) (ZEN-BIO, Research Triangle Park, N.C.). After biopanning, individual plaques were picked, grown overnight, and tested for ASC binding activity using whole cell ELISA according to the following procedure. Phage supernatant was incubated for 30 min at room temperature with ASC monolayers established by overnight culture in 96 well plates. Cells were washed four times with Dulbecco's Phosphate Buffered Saline (DPBS) containing 2% FBS, then incubated with 100 μl of horseradish peroxidase conjugated anti-M13 antibody. After 30 minutes at room temperature, cells were washed four times with DPBS containing 2% FBS. M13 antibody binding was detected by the addition of 3,3′,5,5′-Tetramethylbenzidine (TMB). Blue reaction product, indicating positive binding phage, was measured by absorbance at 370 nm in a microplate reader. For the phage displaying ASC binding activity, DNA sequences were analyzed and translated into peptide sequences using Vector NTI DNA Analysis software and are shown below in Table 1.
Mutagenesis of Cell Binding Peptide Sequence SEQ ID NO: 1. A focused phage display library was generated around the cell binding sequence SEQ ID NO: 1 with each nucleotide position varying in identity at a ratio of 70:10:10:10, with the original nucleotide being the dominant form. This is considered a form of “light” mutagenesis, retaining the majority of residue identities with a few amino acid identity changes. The construction of this “degenerate” phage library was performed according to the methods described in Kay et al., 1996. Three rounds of phage display biopanning were performed on ASCs to enrich for positive binding sequences. Phage showing positive binding to ASCs, identified by whole cell ELISA, were re-amplified, retested, and submitted for DNA sequencing to determine the insert amino acid sequences. In FIG. 14 the single letter amino acid sequence of SEQ ID NO: 1 is shown at the top in white letters with black shading. The phage that retained cell binding activity to adipose derived stem cells (ASCs) and fibroblasts are listed below SEQ ID NO: 1 with original amino acids in white with black shading. Amino acid substitutions are shown in black letters with white shading.

[3] = system: rabbit ASCs; test: Cell capture by biotinylated peptide on streptavidin plate (CELLTITER GLO); type: cell-based; settings: 45 min room temperature, cellular ATP, FIG. 15
Experimental: (§2) In this experiment, the ability of biotinylated cell binding peptides SEQ ID NOs: 1 and 2 to capture ASCs and fibroblasts from a single cell suspension onto a solid support was examined. The cell binding peptides were biotinylated as described herein at Example 2. The cell binding peptides and control peptides lacking cell binding activity were added to a 96 well plate containing immobilized streptavidin. After 30 min at room temperature, excess peptide was washed away with PBS+0.1% Tween 20, followed by 2 washes with PBS. Dilutions of single cell suspensions of either human ASCs (hASCs), rabbit ASCs, rat fibroblasts, or human dermal fibroblasts (hDermFib) were added to the peptide coated wells and incubated for 45 min at room temperature with gentle shaking. Wells were washed 3 times with DPBS+2% FBS. The number of attached cells was determined by measuring cellular ATP with CELLTITER GLO reagent from PROMEGA.

[4] = system: rat fibroblasts; test: as above; type: cell-based; settings: 45 min room temperature, cellular ATP, FIG. 15
Experimental: as §2

[5] = system: human ASCs (hASCs); test: as above; type: cell-based; settings: 45 min room temperature, cellular ATP, FIG. 15
Experimental: as §2

[6] = system: human dermal fibroblasts (hDermFib); test: as above; type: cell-based; settings: 45 min room temperature, cellular ATP, FIG. 15
Experimental: as §2

[7] = system: human ASCs; test: Flow cytometry binding of biotinylated peptides to cells (Neutravidin-PE); settings: biotinylated peptide 25 μM, 30 min at 4° C, percent positivity vs Neutravidin-PE alone; data not shown
Text: (§3) Synthetic biotinylated cell binding peptides SEQ ID NOs: 1 and 2 were examined for their ability to specifically bind ASCs compared to a number of other cells types including bone marrow mesenchymal stem cells (MSCs), dermal fibroblasts, red blood cells, monocytes, lymphocytes granulocytes, and platelets. The cell binding peptides were biotinylated as described herein at Example 2. Cultured cells of each type were either purchased (dermal fibroblasts) or isolated from human bone marrow (MSCs) or human blood. Cells were first harvested with 2 mM EDTA in DPBS and resuspended at 10^6/mL in PBS+2% fetal bovine serum (FBS). An aliquot of cells ([…]) was incubated in 50 μL of peptide solution (25 μM in PBS+FBS) for 30 min at 4° C. Cells were then washed twice in PBS+2% FBS with 300×g centrifugation for 5 min between washes. Fluorescently-tagged neutravidin (Neutravidin-PE from INVITROGEN) was then added to the cells to label biotinylated peptide bound to cells. Neutravidin-PE was diluted 1:250 from stock and applied at 50 μL to cells. Cells were then washed in PBS+FBS, and acquired on a BD FACSARRAY. Peptide reactivity was then measured as percent positivity relative to Neutravidin-PE staining without the addition of biotinylated peptide.

[8] = system: dermal fibroblasts; test: as above; settings: biotinylated peptide 25 μM, 30 min at 4° C, percent positivity vs Neutravidin-PE alone; data not shown
Text: as §3

[9] = target: T2, BMP2 (MEDTRONIC, INC.) (UniProt P12643 283-396, biotinylated with NHS-biotin (average of one biotin per protein molecule) in the phage ELISA; not biotinylated in the peptide ELISA); test: ELISA of synthetic truncation peptides on BMP2; legend in paragraph 124: (-) no binding
T2 construct: also called bone morphogenic protein 2
Experimental: as §1

Question: Which BMP2 binding [1] does the source give for 148 (SIWDDWIGYSR) [compound 148] here?
Answer: Its BMP2 binding is “+”.

Question: How did the BMP2 binding [1] turn out when 185 (IWDDWIGYSR) [compound 185] was run?
Answer: Its BMP2 binding is “−”.

Question: For 186 (WDDWIGYSR) [compound 186], which BMP2 binding [1] is on record?
Answer: The BMP2 binding was “−”.

Question: How did the BMP2 binding [1] turn out when 187 (DDWIGYSR) [compound 187] was run?
Answer: Its BMP2 binding is “−”.

Question: Which BMP2 binding [1] does the source give for 188 (DWIGYSR) [compound 188] here?
Answer: Its BMP2 binding is “−”.

Question: For 189 (SIWDDWIGYS) [compound 189], which BMP2 binding [1] is on record?
Answer: Its BMP2 binding is “+”.

Question: With 190 (SIWDDWIGY) [compound 190] as the molecule, how does the BMP2 binding [1] read?
Answer: The BMP2 binding was “+”.

Question: With 191 (SIWDDWIG) [compound 191] as the molecule, how does the BMP2 binding [1] read?
Answer: Its BMP2 binding is “−/+”.

Question: For 192 (SIWDDWI) [compound 192], which BMP2 binding [1] is on record?
Answer: The BMP2 binding was “−/+”.

Question: For 193 (IWDDWIGYS) [compound 193], which BMP2 binding [1] is on record?
Answer: Its BMP2 binding is “−”.

Question: For 194 (IWDDWIGY) [compound 194], which BMP2 binding [1] is on record?
Answer: The BMP2 binding was “−”.

Question: With 195 (WDDWIGY) [compound 195] as the molecule, how does the BMP2 binding [1] read?
Answer: Its BMP2 binding is “−”.

Question: How did the BMP2 binding [1] turn out when 196 (WDDWIG) [compound 196] was run?
Answer: Its BMP2 binding is “−”.

Question: Which BMP2 binding [1] does the source give for 197 (IWDDWI) [compound 197] here?
Answer: Its BMP2 binding is “−”.

Question: SAFHSSHDSIGVFIN [SEQ ID NO: 21] was tested. Which “binding affinity for ASCs” value [2] did it give?
Answer: The value was “highest binding affinity”.

Question: SFWHVTHDSTGVLIR [SEQ ID NO: 4] was tested. Which “binding affinity for ASCs” value [2] did it give?
Answer: Its value is “highest binding affinity”.

Question: What does the source list for SHCVLGHDGRSRCII [SEQ ID NO: 2]?
Answer: capture of rabbit ASCs [3]: behaved similarly; capture of rat fibroblasts [4]: without exhibiting significant binding; capture of human ASCs [5]: behaved similarly; capture of human fibroblasts [6]: behaved similarly; binding to human ASCs [7]: significant binding; binding to dermal fibroblasts [8]: significant binding

Question: How did the “binding affinity for ASCs” value [2] turn out when SNWHITHDSIGVLVR [SEQ ID NO: 3] was run?
Answer: Its value is “highest binding affinity”.

Question: SNWTSSHDDIGVFLR [SEQ ID NO: 29] was tested. Which “binding affinity for ASCs” value [2] did it give?
Answer: Its value is “highest binding affinity”.

Question: For SSFHISHDNIGVFVR [SEQ ID NO: 9], which “binding affinity for ASCs” value [2] is on record?
Answer: The value was “highest binding affinity”.

Question: How did the “binding affinity for ASCs” value [2] turn out when SSWHISHDDIGVFIR [SEQ ID NO: 6] was run?
Answer: Its value is “highest binding affinity”.

Question: For SSWHISHDSIGVLIR [SEQ ID NO: 1], which “capture of rabbit ASCs” value [3] is on record?
Answer: Its value is “to a lesser extent”.

Question: What about the “capture of rat fibroblasts” value [4] of the same molecule?
Answer: The value was “to a lesser extent”.

Question: And the “capture of human ASCs” value [5]?
Answer: The value was “capture human ASCs”.

Question: What about the “binding to human ASCs” value [7] of the same molecule?
Answer: The value was “significant binding”.

Question: What about the “binding to dermal fibroblasts” value [8] of the same molecule?
Answer: Its value is “significant binding”.

B1: Truncation peptide SEQ ID NO: 195 (peptide)
peptide: WDDWIGY
modifications: C-terminal GSSGK(biotin) or other spacer group possible; not stated for this assay
notes: also called WDDWIGY
Question: Does B1 bind [9]?
Answer: Result: no binding

B2: Truncation peptide SEQ ID NO: 193 (peptide)
peptide: IWDDWIGYS
modifications: C-terminal GSSGK(biotin) or other spacer group possible; not stated for this assay
Question: Does B2 bind [9]?
Answer: Result: no binding

B3: Truncation peptide SEQ ID NO: 185 (peptide)
peptide: IWDDWIGYSR
modifications: C-terminal GSSGK(biotin) or other spacer group possible; not stated for this assay
Question: Does B3 bind [9]?
Answer: Result: no binding

B4: Truncation peptide SEQ ID NO: 187 (peptide)
peptide: DDWIGYSR
modifications: C-terminal GSSGK(biotin) or other spacer group possible; not stated for this assay
Question: Does B4 bind [9]?
Answer: Result: no binding

B5: Truncation peptide SEQ ID NO: 188 (peptide)
peptide: DWIGYSR
modifications: C-terminal GSSGK(biotin) or other spacer group possible; not stated for this assay
notes: also called DWIGYSR
Question: Does B5 bind [9]?
Answer: Result: no binding

B6: Truncation peptide SEQ ID NO: 194 (peptide)
peptide: IWDDWIGY
modifications: C-terminal GSSGK(biotin) or other spacer group possible; not stated for this assay
Question: Does B6 bind [9]?
Answer: Result: no binding

B7: Truncation peptide SEQ ID NO: 186 (peptide)
peptide: WDDWIGYSR
modifications: C-terminal GSSGK(biotin) or other spacer group possible; not stated for this assay
Question: Does B7 bind [9]?
Answer: Result: no binding

B8: Truncation peptide SEQ ID NO: 197 (peptide)
peptide: IWDDWI
modifications: C-terminal GSSGK(biotin) or other spacer group possible; not stated for this assay
notes: also called IWDDWI
Question: Does B8 bind [9]?
Answer: Result: no binding

B9: Truncation peptide SEQ ID NO: 196 (peptide)
peptide: WDDWIG
modifications: C-terminal GSSGK(biotin) or other spacer group possible; not stated for this assay
notes: also called WDDWIG
Question: Does B9 bind [9]?
Answer: Result: no binding
